In US20140087995A1 (published 2014):
Numbered stars: 1 amine (or outer) side, 2 acyl side, 3 side chain; on linkers, the order of the positions; unused ones are H or OH. Bridge positions count the residues as written; N and C are the ends. Side chains are listed from the residue outwards. Ends that are not written are not given here. * marks the point of attachment. C20 diacid = O=C(O)CCCCCCCCCCCCCCCCCCC(=O)*; γGlu = O=C(O)[C@H](CCC(=O)[*:2])N[*:1]; AEEA = NCCOCCOCC(=O)O

Biological target: T1, human amylin 3(a) receptor (human calcitonin receptor co-expressed with RAMP-3) (human, UniProt P30988 25-474; O60896 24-148, limits assumed)
T1 sequence (looked up) 1: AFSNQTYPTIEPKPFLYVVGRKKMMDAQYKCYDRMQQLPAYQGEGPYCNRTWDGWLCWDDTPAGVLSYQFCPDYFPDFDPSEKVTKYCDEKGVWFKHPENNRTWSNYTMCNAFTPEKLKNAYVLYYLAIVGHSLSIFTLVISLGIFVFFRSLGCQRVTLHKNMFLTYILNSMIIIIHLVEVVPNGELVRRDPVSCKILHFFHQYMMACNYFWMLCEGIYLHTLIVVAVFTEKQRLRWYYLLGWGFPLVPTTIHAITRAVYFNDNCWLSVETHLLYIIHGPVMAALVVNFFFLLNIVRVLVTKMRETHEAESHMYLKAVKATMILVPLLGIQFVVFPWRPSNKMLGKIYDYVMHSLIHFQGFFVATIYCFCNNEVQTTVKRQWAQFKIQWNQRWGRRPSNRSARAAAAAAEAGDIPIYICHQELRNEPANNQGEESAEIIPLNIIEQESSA
T1 sequence (looked up) 2: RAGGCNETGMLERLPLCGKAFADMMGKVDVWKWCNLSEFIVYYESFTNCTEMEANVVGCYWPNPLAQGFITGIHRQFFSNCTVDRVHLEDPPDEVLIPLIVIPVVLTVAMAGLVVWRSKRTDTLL
Assay: cell-based or functional assay

B1: N^ε-[(4S)-4-carboxy-4-(19-carboxynonadecanoylamino)butanoyl]Lys[Arg1,Arg17,Pro21,Pro27,His35]-h-amylin (peptide)
peptide: K([γGlu-C20 diacid])RCNTATCATQRLANFLRHSSPNFGAIPSSTNVGSHTY-NH2
modifications: disulfide 3-8; N-terminus assumed
SMILES: CC[C@H](C)[C@H](NC(=O)[C@H](C)NC(=O)CNC(=O)[C@H](Cc1ccccc1)NC(=O)[C@H](CC(N)=O)NC(=O)[C@@H]1CCCN1C(=O)[C@H](CO)NC(=O)[C@H](CO)NC(=O)[C@H](Cc1c[nH]cn1)NC(=O)[C@H](CCCNC(=N)N)NC(=O)[C@H](CC(C)C)NC(=O)[C@H](Cc1ccccc1)NC(=O)[C@H](CC(N)=O)NC(=O)[C@H](C)NC(=O)[C@H](CC(C)C)NC(=O)[C@H](CCCNC(=N)N)NC(=O)[C@H](CCC(N)=O)NC(=O)[C@@H](NC(=O)[C@H](C)NC(=O)[C@@H]1CSSC[C@H](NC(=O)[C@H](CCCNC(=N)N)NC(=O)[C@@H](N)CCCCNC(=O)CC[C@H](NC(=O)CCCCCCCCCCCCCCCCCCC(=O)O)C(=O)O)C(=O)N[C@@H](CC(N)=O)C(=O)N[C@@H]([C@@H](C)O)C(=O)N[C@@H](C)C(=O)N[C@@H]([C@@H](C)O)C(=O)N1)[C@@H](C)O)C(=O)N1CCC[C@H]1C(=O)N[C@@H](CO)C(=O)N[C@@H](CO)C(=O)N[C@H](C(=O)N[C@@H](CC(N)=O)C(=O)N[C@H](C(=O)NCC(=O)N[C@@H](CO)C(=O)N[C@@H](Cc1c[nH]cn1)C(=O)N[C@H](C(=O)N[C@@H](Cc1ccc(O)cc1)C(N)=O)[C@@H](C)O)C(C)C)[C@@H](C)O
notes: 38 residues; also called compound 44
- Ratio hCT/hAmylin funct. (hCTR EC50 over hAmylin-R EC50): 24
- hAmylin-R funct. EC50 (pM): 198 pM

B2: N^ε1-[(4S)-4-carboxy-4-(19-carboxynonadecanoylamino)butanoyl]-[Arg17,Pro21,Pro27]-h-amylin (peptide)
peptide: K([γGlu-C20 diacid])CNTATCATQRLANFLRHSSPNFGAIPSSTNVGSNTY-NH2
modifications: disulfide 2-7; N-terminus assumed
SMILES: CC[C@H](C)[C@H](NC(=O)[C@H](C)NC(=O)CNC(=O)[C@H](Cc1ccccc1)NC(=O)[C@H](CC(N)=O)NC(=O)[C@@H]1CCCN1C(=O)[C@H](CO)NC(=O)[C@H](CO)NC(=O)[C@H](Cc1c[nH]cn1)NC(=O)[C@H](CCCNC(=N)N)NC(=O)[C@H](CC(C)C)NC(=O)[C@H](Cc1ccccc1)NC(=O)[C@H](CC(N)=O)NC(=O)[C@H](C)NC(=O)[C@H](CC(C)C)NC(=O)[C@H](CCCNC(=N)N)NC(=O)[C@H](CCC(N)=O)NC(=O)[C@@H](NC(=O)[C@H](C)NC(=O)[C@@H]1CSSC[C@H](NC(=O)[C@@H](N)CCCCNC(=O)CC[C@H](NC(=O)CCCCCCCCCCCCCCCCCCC(=O)O)C(=O)O)C(=O)N[C@@H](CC(N)=O)C(=O)N[C@@H]([C@@H](C)O)C(=O)N[C@@H](C)C(=O)N[C@@H]([C@@H](C)O)C(=O)N1)[C@@H](C)O)C(=O)N1CCC[C@H]1C(=O)N[C@@H](CO)C(=O)N[C@@H](CO)C(=O)N[C@H](C(=O)N[C@@H](CC(N)=O)C(=O)N[C@H](C(=O)NCC(=O)N[C@@H](CO)C(=O)N[C@@H](CC(N)=O)C(=O)N[C@H](C(=O)N[C@@H](Cc1ccc(O)cc1)C(N)=O)[C@@H](C)O)C(C)C)[C@@H](C)O
notes: also called compound 48
- Ratio hCT/hAmylin funct. (hCTR EC50 over hAmylin-R EC50): 17
- hAmylin-R funct. EC50 (pM): 116 pM

B3: N^ε-[2-[2-[2-[[(4S)-4-carboxy-4-(19-carboxynonadecanoylamino)butanoyl]amino]ethoxy]ethoxy]acetyl]Lys[Arg1,Arg17,Pro21,Pro27,His35]-h-amylin (peptide)
peptide: K([AEEA-γGlu-C20 diacid])RCNTATCATQRLANFLRHSSPNFGAIPSSTNVGSHTY-NH2
modifications: disulfide 3-8; N-terminus assumed
SMILES: CC[C@H](C)[C@H](NC(=O)[C@H](C)NC(=O)CNC(=O)[C@H](Cc1ccccc1)NC(=O)[C@H](CC(N)=O)NC(=O)[C@@H]1CCCN1C(=O)[C@H](CO)NC(=O)[C@H](CO)NC(=O)[C@H](Cc1c[nH]cn1)NC(=O)[C@H](CCCNC(=N)N)NC(=O)[C@H](CC(C)C)NC(=O)[C@H](Cc1ccccc1)NC(=O)[C@H](CC(N)=O)NC(=O)[C@H](C)NC(=O)[C@H](CC(C)C)NC(=O)[C@H](CCCNC(=N)N)NC(=O)[C@H](CCC(N)=O)NC(=O)[C@@H](NC(=O)[C@H](C)NC(=O)[C@@H]1CSSC[C@H](NC(=O)[C@H](CCCNC(=N)N)NC(=O)[C@@H](N)CCCCNC(=O)COCCOCCNC(=O)CC[C@H](NC(=O)CCCCCCCCCCCCCCCCCCC(=O)O)C(=O)O)C(=O)N[C@@H](CC(N)=O)C(=O)N[C@@H]([C@@H](C)O)C(=O)N[C@@H](C)C(=O)N[C@@H]([C@@H](C)O)C(=O)N1)[C@@H](C)O)C(=O)N1CCC[C@H]1C(=O)N[C@@H](CO)C(=O)N[C@@H](CO)C(=O)N[C@H](C(=O)N[C@@H](CC(N)=O)C(=O)N[C@H](C(=O)NCC(=O)N[C@@H](CO)C(=O)N[C@@H](Cc1c[nH]cn1)C(=O)N[C@H](C(=O)N[C@@H](Cc1ccc(O)cc1)C(N)=O)[C@@H](C)O)C(C)C)[C@@H](C)O
notes: 38 residues; also called compound 45
- Ratio hCT/hAmylin funct. (hCTR EC50 over hAmylin-R EC50): 17
- hAmylin-R funct. EC50 (pM): 594 pM

B4: N^ε1-[2-[2-[2-[[(4S)-4-carboxy-4-(19-carboxynonadecanoylamino)butanoyl]amino]ethoxy]ethoxy]acetyl]-[Arg17,Pro21,Pro27]-h-amylin (peptide)
peptide: K([AEEA-γGlu-C20 diacid])CNTATCATQRLANFLRHSSPNFGAIPSSTNVGSNTY-NH2
modifications: disulfide 2-7; N-terminus assumed
SMILES: CC[C@H](C)[C@H](NC(=O)[C@H](C)NC(=O)CNC(=O)[C@H](Cc1ccccc1)NC(=O)[C@H](CC(N)=O)NC(=O)[C@@H]1CCCN1C(=O)[C@H](CO)NC(=O)[C@H](CO)NC(=O)[C@H](Cc1c[nH]cn1)NC(=O)[C@H](CCCNC(=N)N)NC(=O)[C@H](CC(C)C)NC(=O)[C@H](Cc1ccccc1)NC(=O)[C@H](CC(N)=O)NC(=O)[C@H](C)NC(=O)[C@H](CC(C)C)NC(=O)[C@H](CCCNC(=N)N)NC(=O)[C@H](CCC(N)=O)NC(=O)[C@@H](NC(=O)[C@H](C)NC(=O)[C@@H]1CSSC[C@H](NC(=O)[C@@H](N)CCCCNC(=O)COCCOCCNC(=O)CC[C@H](NC(=O)CCCCCCCCCCCCCCCCCCC(=O)O)C(=O)O)C(=O)N[C@@H](CC(N)=O)C(=O)N[C@@H]([C@@H](C)O)C(=O)N[C@@H](C)C(=O)N[C@@H]([C@@H](C)O)C(=O)N1)[C@@H](C)O)C(=O)N1CCC[C@H]1C(=O)N[C@@H](CO)C(=O)N[C@@H](CO)C(=O)N[C@H](C(=O)N[C@@H](CC(N)=O)C(=O)N[C@H](C(=O)NCC(=O)N[C@@H](CO)C(=O)N[C@@H](CC(N)=O)C(=O)N[C@H](C(=O)N[C@@H](Cc1ccc(O)cc1)C(N)=O)[C@@H](C)O)C(C)C)[C@@H](C)O
notes: also called compound 41
- Ratio hCT/hAmylin funct. (hCTR EC50 over hAmylin-R EC50): 16.7
- hAmylin-R funct. EC50 (pM): 260 pM
